For one assay, the system named is 3×MBT domain of L3MBTL1. Nature of the assay: Triple SILAC pull-down, 3xMBT/3xMBTD355N ratio (cytoplasmic, nuclear and chromatin fractions of 293T cells).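 On all read-outs here: proteins quantified with MaxQuant, requiring at least two unique peptides and quantification in both label directions, normalized to the mean of proteins from a digested loading control.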 The class given is binding, human. The following applies: SILAC ratio, pull-down 3xMBT vs 3xMBTD355N; for 3xMBT/D355N UNC Heavy: experiment with UNC0638 in heavy SILAC media; for 3xMBT/D355N UNC Light: experiment with UNC0638 in light SILAC media.

The target in a further assay is T1, G9a and GLP (Homo sapiens, UniProt Q96KQ7+Q9H9B1).
T1 sequence (Q96KQ7 2-1210 limits assumed): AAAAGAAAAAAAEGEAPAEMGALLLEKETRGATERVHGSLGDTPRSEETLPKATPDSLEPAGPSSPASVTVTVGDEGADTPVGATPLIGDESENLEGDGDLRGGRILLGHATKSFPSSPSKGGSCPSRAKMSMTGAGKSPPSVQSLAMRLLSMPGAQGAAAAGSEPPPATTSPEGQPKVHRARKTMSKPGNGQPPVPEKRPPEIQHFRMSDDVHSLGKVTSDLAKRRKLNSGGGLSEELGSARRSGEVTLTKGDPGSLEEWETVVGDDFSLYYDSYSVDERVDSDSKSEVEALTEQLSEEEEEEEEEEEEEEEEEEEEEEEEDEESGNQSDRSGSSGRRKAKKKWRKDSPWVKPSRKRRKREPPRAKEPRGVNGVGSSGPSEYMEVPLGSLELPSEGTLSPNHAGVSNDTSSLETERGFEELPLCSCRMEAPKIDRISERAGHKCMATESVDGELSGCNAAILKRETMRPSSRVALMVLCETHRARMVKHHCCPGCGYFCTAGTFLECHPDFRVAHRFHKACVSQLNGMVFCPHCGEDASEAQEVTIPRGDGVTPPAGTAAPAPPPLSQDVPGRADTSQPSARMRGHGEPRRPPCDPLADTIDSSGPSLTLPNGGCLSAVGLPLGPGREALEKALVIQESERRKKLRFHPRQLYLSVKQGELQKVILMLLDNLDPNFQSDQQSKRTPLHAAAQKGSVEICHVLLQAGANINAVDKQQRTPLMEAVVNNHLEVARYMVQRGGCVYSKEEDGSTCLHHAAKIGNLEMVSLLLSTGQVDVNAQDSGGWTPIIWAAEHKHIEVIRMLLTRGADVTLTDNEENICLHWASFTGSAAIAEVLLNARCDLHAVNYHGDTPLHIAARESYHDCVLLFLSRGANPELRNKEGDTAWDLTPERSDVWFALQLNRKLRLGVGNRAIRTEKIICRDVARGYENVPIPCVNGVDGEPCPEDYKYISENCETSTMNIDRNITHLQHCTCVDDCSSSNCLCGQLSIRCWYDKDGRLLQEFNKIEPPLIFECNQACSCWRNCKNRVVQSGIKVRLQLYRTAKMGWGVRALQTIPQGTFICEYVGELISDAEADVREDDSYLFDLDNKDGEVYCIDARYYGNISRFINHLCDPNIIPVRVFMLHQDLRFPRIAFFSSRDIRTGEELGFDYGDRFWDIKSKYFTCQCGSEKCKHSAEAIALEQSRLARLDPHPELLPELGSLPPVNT
T1 sequence (Q9H9B1 2-1298 limits assumed): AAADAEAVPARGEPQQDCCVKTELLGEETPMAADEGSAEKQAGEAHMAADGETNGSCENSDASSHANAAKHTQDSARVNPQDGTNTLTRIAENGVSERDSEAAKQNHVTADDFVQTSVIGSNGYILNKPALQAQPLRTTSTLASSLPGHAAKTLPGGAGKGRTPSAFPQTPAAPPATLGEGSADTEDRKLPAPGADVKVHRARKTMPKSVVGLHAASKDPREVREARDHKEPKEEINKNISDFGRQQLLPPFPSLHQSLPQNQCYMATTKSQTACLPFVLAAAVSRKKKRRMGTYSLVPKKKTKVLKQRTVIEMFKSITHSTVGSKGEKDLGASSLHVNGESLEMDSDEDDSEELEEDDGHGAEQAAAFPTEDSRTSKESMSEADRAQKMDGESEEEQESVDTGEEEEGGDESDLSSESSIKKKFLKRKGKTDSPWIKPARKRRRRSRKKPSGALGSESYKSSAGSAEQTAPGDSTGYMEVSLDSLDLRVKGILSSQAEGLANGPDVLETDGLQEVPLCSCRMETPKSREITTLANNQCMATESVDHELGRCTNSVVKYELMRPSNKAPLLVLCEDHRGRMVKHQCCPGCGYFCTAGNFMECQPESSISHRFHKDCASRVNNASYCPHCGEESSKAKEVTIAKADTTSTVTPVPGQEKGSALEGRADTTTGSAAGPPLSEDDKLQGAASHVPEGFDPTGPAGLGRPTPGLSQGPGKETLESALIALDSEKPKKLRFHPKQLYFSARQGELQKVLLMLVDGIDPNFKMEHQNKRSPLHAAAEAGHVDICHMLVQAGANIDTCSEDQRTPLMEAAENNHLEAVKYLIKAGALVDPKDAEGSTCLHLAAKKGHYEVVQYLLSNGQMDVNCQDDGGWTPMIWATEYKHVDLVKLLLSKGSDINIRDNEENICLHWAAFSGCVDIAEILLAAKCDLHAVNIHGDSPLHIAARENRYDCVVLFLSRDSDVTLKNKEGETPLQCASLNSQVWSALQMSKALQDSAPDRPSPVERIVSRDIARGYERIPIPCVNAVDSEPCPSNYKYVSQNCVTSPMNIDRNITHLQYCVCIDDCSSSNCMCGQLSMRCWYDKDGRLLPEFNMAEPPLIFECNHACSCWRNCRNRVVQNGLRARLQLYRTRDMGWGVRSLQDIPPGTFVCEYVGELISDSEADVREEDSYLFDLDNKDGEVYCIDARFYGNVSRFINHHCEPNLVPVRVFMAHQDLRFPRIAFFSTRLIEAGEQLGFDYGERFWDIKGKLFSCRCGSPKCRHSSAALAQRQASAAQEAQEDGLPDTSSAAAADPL
In words: Triple SILAC pull-down after UNC0638 treatment of 293T cells, DMSO/UNC0638 ratio of protein captured by 3×MBT.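 On all read-outs here: mass spectrometry (Q-Exactive) SILAC quantitation, DMSO/UNC0638 ratio computed after subtracting 3×MBTD355N mutant pull-down background, only proteins with at least twofold 3×MBT over mutant signal considered.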 The class given is cell-based. Set-up: endogenous in cells; host or cells: HEK 293T. As to conditions: for Relative to UNC0638 UNC Heavy / Relative to UNC0638 UNC Light: SILAC ratio DMSO/UNC0638 of protein pulled down with 3xMBT; for Relative to UNC0638 UNC Heavy: UNC0638 in heavy SILAC media; for Relative to UNC0638 UNC Light: UNC0638 in light SILAC media; for Relative to UNC0638 Average: average of UNC Light and UNC Heavy experiments.

B1: CPSF1 (protein, UniProt Q10570 1-1443, looked up)
Cleavage and polyadenylation …: MYAVYKQAHPPTGLEFSMYCNFFNNSERNLVVAGTSQLYVYRLNRDAEALTKNDRSTEGKAHREKLELAASFSFFGNVMSMASVQLAGAKRDALLLSFKDAKLSVVEYDPGTHDLKTLSLHYFEEPELRDGFVQNVHTPRVRVDPDGRCAAMLVYGTRLVVLPFRRESLAEEHEGLVGEGQRSSFLPSYIIDVRALDEKLLNIIDLQFLHGYYEPTLLILFEPNQTWPGRVAVRQDTCSIVAISLNITQKVHPVIWSLTSLPFDCTQALAVPKPIGGVVVFAVNSLLYLNQSVPPYGVALNSLTTGTTAFPLRTQEGVRITLDCAQATFISYDKMVISLKGGEIYVLTLITDGMRSVRAFHFDKAAASVLTTSMVTMEPGYLFLGSRLGNSLLLKYTEKLQEPPASAVREAADKEEPPSKKKRVDATAGWSAAGKSVPQDEVDEIEVYGSEAQSGTQLATYSFEVCDSILNIGPCANAAVGEPAFLSEEFQNSPEPDLEIVVCSGHGKNGALSVLQKSIRPQVVTTFELPGCYDMWTVIAPVRKEEEDNPKGEGTEQEPSTTPEADDDGRRHGFLILSREDSTMILQTGQEIMELDTSGFATQGPTVFAGNIGDNRYIVQVSPLGIRLLEGVNQLHFIPVDLGAPIVQCAVADPYVVIMSAEGHVTMFLLKSDSYGGRHHRLALHKPPLHHQSKVITLCLYRDLSGMFTTESRLGGARDELGGRSGPEAEGLGSETSPTVDDEEEMLYGDSGSLFSPSKEEARRSSQPPADRDPAPFRAEPTHWCLLVRENGTMEIYQLPDWRLVFLVKNFPVGQRVLVDSSFGQPTTQGEARREEATRQGELPLVKEVLLVALGSRQSRPYLLVHVDQELLIYEAFPHDSQLGQGNLKVRFKKVPHNINFREKKPKPSKKKAEGGGAEEGAGARGRVARFRYFEDIYGYSGVFICGPSPHWLLVTGRGALRLHPMAIDGPVDSFAPFHNVNCPRGFLYFNRQGELRISVLPAYLSYDAPWPVRKIPLRCTAHYVAYHVESKVYAVATSTNTPCARIPRMTGEEKEFETIERDERYIHPQQEAFSIQLISPVSWEAIPNARIELQEWEHVTCMKTVSLRSEETVSGLKGYVAAGTCLMQGEEVTCRGRILIMDVIEVVPEPGQPLTKNKFKVLYEKEQKGPVTALCHCNGHLVSAIGQKIFLWSLRASELTGMAFIDTQLYIHQMISVKNFILAADVMKSISLLRYQEESKTLSLVSRDAKPLEVYSVDFMVDNAQLGFLVSDRDRNLMVYMYLPEAKESFGGMRLLRRADFHVGAHVNTFWRTPCRGATEGLSKKSVVWENKHITWFATLDGGIGLLLPMQEKTYRRLLMLQNALTTMLPHHAGLNPRAFRMLHVDRRTLQNAVRNVLDGELLNRYLYLSTMERSELAKKIGTTPDIILDDLLETDRVTAHF
With B1, in the assay on 3×MBT domain of L3MBTL1, the “3xMBT/D355N UNC Heavy” value is recorded as 2.44 log base 2 and the “3xMBT/D355N UNC Light” value was 3.15 log base 2. In the assay with G9a and GLP, the “Relative to UNC0638 UNC Heavy” value amounted to 0.17 log base 2, the “Relative to UNC0638 UNC Light” value was determined as 0.15 log base 2 and the “Relative to UNC0638 Average” value was 0.16 log base 2.

B2: SYNCRIP (protein, UniProt O60506 2-623, looked up)
Heterogeneous nuclear …: ATEHVNGNGTEEPMDTTSAVIHSENFQTLLDAGLPQKVAEKLDEIYVAGLVAHSDLDERAIEALKEFNEDGALAVLQQFKDSDLSHVQNKSAFLCGVMKTYRQREKQGTKVADSSKGPDEAKIKALLERTGYTLDVTTGQRKYGGPPPDSVYSGQQPSVGTEIFVGKIPRDLFEDELVPLFEKAGPIWDLRLMMDPLTGLNRGYAFVTFCTKEAAQEAVKLYNNHEIRSGKHIGVCISVANNRLFVGSIPKSKTKEQILEEFSKVTEGLTDVILYHQPDDKKKNRGFCFLEYEDHKTAAQARRRLMSGKVKVWGNVGTVEWADPIEDPDPEVMAKVKVLFVRNLANTVTEEILEKAFSQFGKLERVKKLKDYAFIHFDERDGAVKAMEEMNGKDLEGENIEIVFAKPPDQKRKERKAQRQAAKNQMYDDYYYYGPPHMPPPTRGRGRGGRGGYGYPPDYYGYEDYYDYYGYDYHNYRGGYEDPYYGYEDFQVGARGRGGRGARGAAPSRGRGAAPPRGRAGYSQRGGPGSARGVRGARGGAQQQRGRGVRGARGGRGGNVGGKRKADGYNQPDSKRRQTNNQNWGSQPIAQQPLQGGDHSGNYGYKSENQEFYQDTFGQQWK
As to B2, in the assay with 3×MBT domain of L3MBTL1, the “3xMBT/D355N UNC Heavy” value stood at 2.28 log base 2 and the “3xMBT/D355N UNC Light” value is recorded as 3.48 log base 2. For the same molecule, in the assay with G9a and GLP, the “Relative to UNC0638 UNC Heavy” value is 0.14 log base 2, the “Relative to UNC0638 UNC Light” value came out at 0.17 log base 2 and the “Relative to UNC0638 Average” value was 0.15 log base 2.

B3: API5 (protein, UniProt Q9BZZ5 2-524, looked up)
Apoptosis inhibitor 5: PTVEELYRNYGILADATEQVGQHKDAYQVILDGVKGGTKEKRLAAQFIPKFFKHFPELADSAINAQLDLCEDEDVSIRRQAIKELPQFATGENLPRVADILTQLLQTDDSAEFNLVNNALLSIFKMDAKGTLGGLFSQILQGEDIVRERAIKFLSTKLKTLPDEVLTKEVEELILTESKKVLEDVTGEEFVLFMKILSGLKSLQTVSGRQQLVELVAEQADLEQTFNPSDPDCVDRLLQCTRQAVPLFSKNVHSTRFVTYFCEQVLPNLGTLTTPVEGLDIQLEVLKLLAEMSSFCGDMEKLETNLRKLFDKLLEYMPLPPEEAENGENAGNEEPKLQFSYVECLLYSFHQLGRKLPDFLTAKLNAEKLKDFKIRLQYFARGLQVYIRQLRLALQGKTGEALKTEENKIKVVALKITNNINVLIKDLFHIPPSYKSTVTLSWKPVQKVEIGQKRASEDTTSGSPPKKSSAGPKRDARQIYNPPSGKYSSNLGNFNYEQRGAFRGSRGGRGWGTRGNRSRGRLY
Consider B3, for which, in the assay with 3×MBT domain of L3MBTL1, the “3xMBT/D355N UNC Heavy” value is 3.54 log base 2 and the “3xMBT/D355N UNC Light” value turned out to be 2.67 log base 2. Moreover, in the assay with G9a and GLP, the “Relative to UNC0638 UNC Heavy” value is 1.12 log base 2, the “Relative to UNC0638 UNC Light” value is recorded as 0.31 log base 2 and the “Relative to UNC0638 Average” value came out at 0.71 log base 2. Further, the “Candidate G9a/GLP target” value with G9a and GLP (reduced association with 3xMBT after UNC0638 treatment) was “✓”.

The record behind these values is US20140274782A1, “AFFINITY REAGENTS AND METHODS FOR DETECTION, PURIFICATION, AND PROTEOMIC ANALYSIS OF METHYLATED PROTEINS” (The Board of Trustees of the Leland Stanford Junior …, priority 2013, published 2014).
